Residue numbers refer to the chain shown, from its start. Where “and” joins values, the source holds several entries; their conditions need not be identical. Equal entries are not always repeated.
B1: 28H31S54V59D / 101V (antibody, V domains shown)
VH: EVQLVESGGGLVQPGGSLRLSCAASGYHFTSYYMNWVRQAPGKGLEWIGDINPVTGDTDYNADFKRRFTFSLDTSKSTAYLQMNSLRAEDTAVYYCTREGPSFAYWGQGTLVTVSS
VL: DIQLTQSPSSLSASVGDRVTITCRSSQTIVHSNGDTYLEWYQQKPGKAPNLLIYKVSNRFSGVPSRFSGSGSGTDFTLTISSLQPEDFATYYCFQGSHVPVTFGQGTKVEIK
notes: KCD119 TAF variant; full antibody captured on protein A
B2: 54I59D / 32W60W101V (antibody, V domains shown)
VH: B1 VH with H28T, S31D, V54I
VL: B1 VL with S32W, F60W
notes: as for B1
B3: 54I59D / 32W54S101V (antibody, V domains shown)
VH: B1 VH with H28T, S31D, V54I
VL: B1 VL with S32W, Y54S
notes: Light label printed 32W545101V, read as 32W54S101V; also called 54I59D / 32W545101V
B4: 34I54I59D / 32W60W101V (antibody, V domains shown)
VH: B1 VH with H28T, S31D, M34I, V54I
VL: B1 VL with S32W, F60W
notes: as for B1
B5: 28V31S54V59D / 101V (antibody, V domains shown)
VH: B1 VH with H28V
VL: B1 VL
notes: as for B1
B6: 31S54I59D / 50I60W101V (antibody, V domains shown)
VH: B1 VH with H28T, V54I
VL: B1 VL with N50I, F60W
notes: as for B1
B7: 54I59D / 54S60W101V (antibody, V domains shown)
VH: B1 VH with H28T, S31D, V54I
VL: B1 VL with Y54S, F60W
notes: Light label printed 54560W101V, read as 54S60W101V; also called 54I59D / 54560W101V
B8: 31S54I59D / 54G101V (antibody, V domains shown)
VH: B1 VH with H28T, V54I
VL: B1 VL with Y54G
notes: as for B1
B9: 54V59D / 32D60W101V (antibody, V domains shown)
VH: B1 VH with H28T, S31D
VL: B1 VL with S32D, F60W
notes: as for B1
B10: 54I59D / 101V (antibody, V domains shown)
VH: B1 VH with H28T, S31D, V54I
VL: B1 VL
notes: as for B1
B11: 54I59D / 32W33G60W101V (antibody, V domains shown)
VH: B1 VH with H28T, S31D, V54I
VL: B1 VL with S32W, N33G, F60W
notes: KCD119 TAF variant; same label printed in three rows
B12: 54V56V / 101V (antibody, V domains shown)
VH: B1 VH with H28T, S31D, G56V, D59S
VL: B1 VL
notes: as for B1
B13: 28Q31S54V59D / 101V (antibody, V domains shown)
VH: B1 VH with H28Q
VL: B1 VL
notes: as for B1
B14: 28I31S54V59D / 101V (antibody, V domains shown)
VH: B1 VH with H28I
VL: B1 VL
notes: as for B1
B15: 28S31S54V59D / 101V (antibody, V domains shown)
VH: B1 VH with H28S
VL: B1 VL
notes: as for B1
B16: 31S54V59D / 101V (antibody, V domains shown)
VH: B1 VH with H28T
VL: B1 VL
notes: as for B1
B17: 31S54V59D / 32W60W101V (antibody, V domains shown)
VH: B1 VH with H28T
VL: B1 VL with S32W, F60W
notes: as for B1
B18: 54I59D84T / 32W60W101V (antibody, V domains shown)
VH: B1 VH with H28T, S31D, V54I, N84T
VL: B1 VL with S32W, F60W
notes: as for B1
B19: 48V54V59D / 32W60W101V (antibody, V domains shown)
VH: B1 VH with H28T, S31D, I48V
VL: B1 VL with S32W, F60W
notes: as for B1
B20: 31S54I59D / 32W60W101V (antibody, V domains shown)
VH: B1 VH with H28T, V54I
VL: B1 VL with S32W, F60W
notes: as for B1
B21: 31S34I54I59D / 32W60W101V (antibody, V domains shown)
VH: B1 VH with H28T, M34I, V54I
VL: B1 VL with S32W, F60W
notes: as for B1
B22: 54V59D / 32D50I101V (antibody, V domains shown)
VH: B1 VH with H28T, S31D
VL: B1 VL with S32D, N50I
notes: as for B1
B23: 54I59D / 32W54S60W101V (antibody, V domains shown)
VH: B1 VH with H28T, S31D, V54I
VL: B1 VL with S32W, Y54S, F60W
notes: Light label printed 32W54560W101V, read as 32W54S60W101V; also called 54I59D / 32W54560W101V
B24: 31S54I59D84S / 32W60W101V (antibody, V domains shown)
VH: B1 VH with H28T, V54I, N84S
VL: B1 VL with S32W, F60W
notes: Label printed 31S54I59D845, read as 84S; full antibody captured on protein A; also called 31S54I59D845 / 32W60W101V
B25: 54I59D / 50I60W101V (antibody, V domains shown)
VH: B1 VH with H28T, S31D, V54I
VL: B1 VL with N50I, F60W
notes: as for B1
B26: 31S54I59D84T / 32W60W101V (antibody, V domains shown)
VH: B1 VH with H28T, V54I, N84T
VL: B1 VL with S32W, F60W
notes: as for B1
B27: 54I59D / 54G60W101 (antibody, V domains shown)
VH: B1 VH with H28T, S31D, V54I
VL: B1 VL with Y54G, F60W
B28: 54V59D / 32W60W101V (antibody, V domains shown)
VH: B1 VH with H28T, S31D
VL: B1 VL with S32W, F60W
notes: as for B1
B29: 54V59D / 101V (antibody, V domains shown)
VH: B1 VH with H28T, S31D
VL: B1 VL
notes: as for B1
B30: 28K31S54V59D / 101V (antibody, V domains shown)
VH: B1 VH with H28K
VL: B1 VL
notes: as for B1
B31: 31S48V54V59D / 101V (antibody, V domains shown)
VH: B1 VH with H28T, I48V
VL: B1 VL
notes: as for B1

The binders below were run against T1, serum purified human Complement Factor D (human, UniProt P00746 26-253) (assay: SPR Biacore, antibody on protein A chip, single cycle kinetics, 37 C;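 also: antibodies captured on the protein A surface to roughly 70 RU in HBS-EP+ buffer, with rate and affinity constants fitted using BIAevaluation software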).
T1 construct: Serum purified protein flowed over the captured antibodies; also called CFD; human CFD
T1 sequence (P00746 26-253): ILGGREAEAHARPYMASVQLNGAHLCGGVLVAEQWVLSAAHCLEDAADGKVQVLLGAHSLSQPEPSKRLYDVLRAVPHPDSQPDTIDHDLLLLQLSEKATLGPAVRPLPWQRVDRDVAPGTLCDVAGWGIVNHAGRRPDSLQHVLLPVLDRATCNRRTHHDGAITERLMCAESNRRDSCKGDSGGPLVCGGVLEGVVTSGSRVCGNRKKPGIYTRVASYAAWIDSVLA
Method: (§1) Antibodies were diluted to 0.5 ug/ml in HBS-EP+ buffer and captured on a protein A chip for 25 seconds to reach approximately 70 resonance units. […] Binding kinetic information was obtained by the BIAevaluation software (GE).

Kd	koff	kon	Binder
0.0257 nM	0.000443 s⁻¹	1.72e+07 M⁻¹ s⁻¹	B1
0.0131 nM and 0.00972 nM and 0.00501 nM	–	1.5e+07 M⁻¹ s⁻¹ and 6.86e+06 M⁻¹ s⁻¹ and 1.17e+07 M⁻¹ s⁻¹	B2
0.011 nM	0.000155 s⁻¹	1.41e+07 M⁻¹ s⁻¹	B3
0.0217 nM	0.000279 s⁻¹	1.29e+07 M⁻¹ s⁻¹	B4
0.051 nM	0.00085 s⁻¹	1.66e+07 M⁻¹ s⁻¹	B5
0.0276 nM	0.000256 s⁻¹	9.26e+06 M⁻¹ s⁻¹	B6
0.0119 nM	0.000148 s⁻¹	1.24e+07 M⁻¹ s⁻¹	B7
0.00931 nM	0.000222 s⁻¹	2.38e+07 M⁻¹ s⁻¹	B8
0.0415 nM	0.000371 s⁻¹	8.93e+06 M⁻¹ s⁻¹	B9
0.0475 nM and 0.0184 nM	0.000437 s⁻¹ and 0.000222 s⁻¹	9.19e+06 M⁻¹ s⁻¹ and 1.21e+07 M⁻¹ s⁻¹	B10
0.105 nM and 0.0979 nM and 0.135 nM	0.0012 s⁻¹ and 0.00148 s⁻¹ and 0.00117 s⁻¹	1.14e+07 M⁻¹ s⁻¹ and 1.51e+07 M⁻¹ s⁻¹ and 8.69e+06 M⁻¹ s⁻¹	B11
0.107 nM	0.00104 s⁻¹	9.69e+06 M⁻¹ s⁻¹	B12
0.0757 nM	0.00103 s⁻¹	1.35e+07 M⁻¹ s⁻¹	B13
0.0195 nM	0.00039 s⁻¹	2e+07 M⁻¹ s⁻¹	B14
0.0727 nM	0.000918 s⁻¹	1.26e+07 M⁻¹ s⁻¹	B15
0.0411 nM	0.000373 s⁻¹	9.08e+06 M⁻¹ s⁻¹	B16
0.0227 nM	0.000293 s⁻¹	1.29e+07 M⁻¹ s⁻¹	B17
0.0258 nM	0.000365 s⁻¹	1.41e+07 M⁻¹ s⁻¹	B18
0.0212 nM	0.000278 s⁻¹	1.31e+07 M⁻¹ s⁻¹	B19
0.0343 nM	0.000225 s⁻¹	6.55e+06 M⁻¹ s⁻¹	B20
0.0312 nM	0.000208 s⁻¹	6.67e+06 M⁻¹ s⁻¹	B21
0.0274 nM	0.00041 s⁻¹	1.5e+07 M⁻¹ s⁻¹	B22
0.0124 nM	0.000136 s⁻¹	1.1e+07 M⁻¹ s⁻¹	B23
0.0235 nM	0.000209 s⁻¹	8.9e+06 M⁻¹ s⁻¹	B24
0.0318 nM	0.000329 s⁻¹	1.04e+07 M⁻¹ s⁻¹	B25
0.0288 nM	0.000224 s⁻¹	7.79e+06 M⁻¹ s⁻¹	B26
0.00989 nM	0.000118 s⁻¹	1.19e+07 M⁻¹ s⁻¹	B27

What follows are binders tested against T1, serum purified human Complement Factor D (assay: SPR Biacore, antibody on protein A chip, single cycle kinetics, 25 C;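 also: antibodies captured to roughly 70 RU on the protein A surface in HBS-EP+ running buffer, with kinetic constants derived by BIAevaluation fitting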).
Method: as §1

Kd	koff	kon	Binder
0.0251 nM	0.000167 s⁻¹	6.65e+06 M⁻¹ s⁻¹	B1
–	3.5e-05 s⁻¹ and 8.32e-05 s⁻¹ and 6.85e-05 s⁻¹	7.57e+06 M⁻¹ s⁻¹ and 4.91e+06 M⁻¹ s⁻¹ and 5.83e+06 M⁻¹ s⁻¹	B2
0.00948 nM	7.29e-05 s⁻¹	7.69e+06 M⁻¹ s⁻¹	B3
0.0211 nM	0.000136 s⁻¹	6.45e+06 M⁻¹ s⁻¹	B4
0.00607 nM	4.79e-05 s⁻¹	7.88e+06 M⁻¹ s⁻¹	B28
0.00601 nM	4.76e-05 s⁻¹	7.91e+06 M⁻¹ s⁻¹	B5
0.00774 nM	3.98e-05 s⁻¹	5.14e+06 M⁻¹ s⁻¹	B6
0.00985 nM	7.08e-05 s⁻¹	7.19e+06 M⁻¹ s⁻¹	B7
0.0371 nM	0.000258 s⁻¹	6.94e+06 M⁻¹ s⁻¹	B29
0.00689 nM	8.25e-05 s⁻¹	1.2e+07 M⁻¹ s⁻¹	B8
0.0102 nM	0.000128 s⁻¹	1.25e+07 M⁻¹ s⁻¹	B9
0.0204 nM and 0.0267 nM and 0.00908 nM	0.000152 s⁻¹ and 0.000154 s⁻¹ and 5.74e-05 s⁻¹	7.43e+06 M⁻¹ s⁻¹ and 5.78e+06 M⁻¹ s⁻¹ and 6.32e+06 M⁻¹ s⁻¹	B10
0.0514 nM and 0.0534 nM and 0.0778 nM	0.0004 s⁻¹ and 0.000328 s⁻¹ and 0.000352 s⁻¹	7.78e+06 M⁻¹ s⁻¹ and 6.14e+06 M⁻¹ s⁻¹ and 4.53e+06 M⁻¹ s⁻¹	B11
0.0645 nM	0.000351 s⁻¹	5.44e+06 M⁻¹ s⁻¹	B12
0.023 nM	0.000164 s⁻¹	7.15e+06 M⁻¹ s⁻¹	B13
0.0177 nM	0.000134 s⁻¹	7.59e+06 M⁻¹ s⁻¹	B14

Kd	koff	kon	Binder
0.0217 nM	0.000166 s⁻¹	7.64e+06 M⁻¹ s⁻¹	B15
0.0224 nM	0.000163 s⁻¹	7.3e+06 M⁻¹ s⁻¹	B30
0.0188 nM and 0.0176 nM	0.000131 s⁻¹ and 0.000101 s⁻¹	6.95e+06 M⁻¹ s⁻¹ and 5.71e+06 M⁻¹ s⁻¹	B16
0.0158 nM	8.84e-05 s⁻¹	5.58e+06 M⁻¹ s⁻¹	B17
0.0169 nM	8.43e-05 s⁻¹	4.99e+06 M⁻¹ s⁻¹	B18
0.0169 nM	0.000101 s⁻¹	5.98e+06 M⁻¹ s⁻¹	B31
0.0159 nM	9.5e-05 s⁻¹	5.96e+06 M⁻¹ s⁻¹	B19
0.0165 nM	6.3e-05 s⁻¹	3.83e+06 M⁻¹ s⁻¹	B20
0.0172 nM	5.69e-05 s⁻¹	3.31e+06 M⁻¹ s⁻¹	B21
0.0197 nM	0.00016 s⁻¹	8.11e+06 M⁻¹ s⁻¹	B22
0.00858 nM	5.37e-05 s⁻¹	6.25e+06 M⁻¹ s⁻¹	B23
0.0203 nM	7.76e-05 s⁻¹	3.83e+06 M⁻¹ s⁻¹	B24
0.0121 nM	6.67e-05 s⁻¹	5.53e+06 M⁻¹ s⁻¹	B25
0.0157 nM	6.01e-05 s⁻¹	3.83e+06 M⁻¹ s⁻¹	B26
0.0125 nM	8.54e-05 s⁻¹	6.83e+06 M⁻¹ s⁻¹	B27

Source: patent US20180334496A1 (KODIAK SCIENCES, published 2018)
